Measurements as given in the supplement of paper PMC9732359.
± gives the uncertainty stated by the source.

Assay: protein stability index of a GFP-peptide fusion (yeast GPS) (PSI 1-4); higher = more stable; sorted into four equal gates, so the index is relative within each strain
Method in brief: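 Tiled 17-residue peptides from yeast proteins were fused downstream of GFP on a plasmid that also expresses Cherry, and the pooled library was carried in yeast. Mid-log cultures grown in leucine-free medium were sorted into four equal gates by GFP/Cherry fluorescence ratio. Plasmids from each gate were PCR-amplified and Illumina-sequenced, and reads were assigned to strains by barcodes. Each peptide's protein stability index is the sum, over gates, of the gate's read frequency multiplied by its gate number.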

Sequence | protein stability index (doa10∆) | protein stability index (pdr5∆) | protein stability index (san1∆) | protein stability index (ubr1∆)
PFETFDHASIRRGYQVY [CYT1] | 2.68 ± 0.048 | 2.65 ± 0.044 | 2.82 ± 0.047 | 2.9 ± 0.032
PFIKSESKPFSSDALSK [SIR4] | 3.17 ± 0.07 | 3.15 ± 0.09 | 3.2 ± 0.046 | 3.13 ± 0.061
PFQLDVADMLTPEYAAE [UBP6] | 2.95 ± 0.17 | 2.65 ± 0.19 | 2.7 ± 0.085 | 2.77 ± 0.16
PFREFLQVLIDQLDSEA [ECM29] | 3.38 ± 0.095 | 2.6 ± 0.12 | 3.08 ± 0.089 | 3.01 ± 0.065
PGFQLPNRITLTDHRKE [SRB8] | 2.79 ± 0.079 | 2.98 ± 0.084 | 3.14 ± 0.069 | 3.22 ± 0.067
PGKGILTTAREHHSSVK [FAS2] | 3.07 ± 0.087 | 3.32 ± 0.076 | 3.17 ± 0.049 | 3.11 ± 0.067
PHGFPSRMTVGKMIELI [RET1] | 2.54 ± 0.11 | 2.56 ± 0.11 | 2.77 ± 0.084 | 2.46 ± 0.092
PHGISVFLSNLVETCLN [BRR2] | 1.39 ± 0.043 | 1.57 ± 0.035 | 1.48 ± 0.07 | 1.61 ± 0.03
PHLPFSKSENPVLSTIA [SWI3] | 1.95 ± 0.049 | 2.04 ± 0.048 | 2.03 ± 0.062 | 2.05 ± 0.028
PIAAPKKPRKPRQTKKA [PGD1] | 2.64 ± 0.11 | 3.18 ± 0.092 | 2.56 ± 0.082 | 3.09 ± 0.097
PIAQPATDVEARAVQDN [RPL13A] | 3.02 ± 0.15 | 3.17 ± 0.11 | 3.1 ± 0.14 | 1.69 ± 0.2
PILVTLVSDSEIIDLNL [POP6] | 2.29 ± 0.058 | 2.47 ± 0.046 | 2.36 ± 0.074 | 2.74 ± 0.054
PIMQTQMPLNSNGGNNM [SNF2] | 3 ± 0.059 | 2.92 ± 0.06 | 2.84 ± 0.057 | 2.62 ± 0.045
PINLKFLQGESPFSITF [YMR129W/POM152] | 2.53 ± 0.079 | 2.1 ± 0.063 | 2.63 ± 0.063 | 2.32 ± 0.071
PKELVPSHEKLKESYSQ [CDC53] | 3.13 ± 0.077 | 3.02 ± 0.067 | 2.51 ± 0.14 | 2.81 ± 0.073
PKLLDALNKISKYYPGV [SNU114] | 3.08 ± 0.076 | 2.37 ± 0.072 | 2.8 ± 0.065 | 2.88 ± 0.044
PKNLLKKFIEISDVKIQ [PRP8] | 1.76 ± 0.064 | 1.88 ± 0.067 | 1.76 ± 0.13 | 2.26 ± 0.05
PKNSSSPVQIAFNRFMA [SSN8] | 1.51 ± 0.053 | 1.74 ± 0.05 | 1.52 ± 0.1 | 1.57 ± 0.054
PKSTAPIFSFGKQEENG [YOR098C/NUP1] | 2.24 ± 0.053 | 2.75 ± 0.069 | 2.49 ± 0.059 | 2.38 ± 0.043

Sequence | protein stability index (doa10∆) | protein stability index (pdr5∆) | protein stability index (san1∆) | protein stability index (ubr1∆)
PLAKKQTVRLIKDLQRA [SIR2] | 2.77 ± 0.08 | 3.01 ± 0.07 | 2.77 ± 0.057 | 2.97 ± 0.062
PLGILHIPICVTFSFFN [RRP45] | 1.29 ± 0.05 | 1.26 ± 0.06 | 1.2 ± 0.096 | 1.12 ± 0.045
PLLDIVLKADRSWNEPS [YML103C/NUP188] | 2.02 ± 0.15 | 2.86 ± 0.26 | – | 3.12 ± 0.11
PLLRKVVDRESDIPKTT [PRE4] | 2.54 ± 0.11 | 2.46 ± 0.091 | 1.87 ± 0.13 | 2.79 ± 0.067
PLRDNGLLDESPNRLRV [YML031W/NDC1] | 3.2 ± 0.14 | 3.03 ± 0.1 | 3.15 ± 0.08 | 3.39 ± 0.074
PLVGKPKTELTKGDSTP [YAR002W/NUP60] | 2.59 ± 0.061 | 2.9 ± 0.058 | 2.46 ± 0.086 | 2.83 ± 0.11
PLVIRRYLPDGSFEDWS [RPO26] | 3.43 ± 0.18 | 3.27 ± 0.18 | 3.44 ± 0.068 | –
PLVYRHELITNIGETAG [RPB9] | 2.78 ± 0.046 | 2.88 ± 0.035 | 3.04 ± 0.042 | 3.02 ± 0.036
PMEVMGLMLGEFVDDYT [RPN11] | 3.29 ± 0.12 | 3.28 ± 0.095 | 3.12 ± 0.14 | 3.08 ± 0.074
PNERKAKQAKIRAGEFD [SNF2] | 3.62 ± 0.12 | 3.66 ± 0.18 | 2.99 ± 0.17 | 3.5 ± 0.14
PNETSEIAQANSRNAIR [RPL19A] | 2.7 ± 0.15 | 2.92 ± 0.095 | 2.54 ± 0.14 | 3.05 ± 0.13
PNFDWDLCSSVLSQFER [ROX3] | 3.12 ± 0.079 | 2.8 ± 0.095 | 2.6 ± 0.08 | 2.59 ± 0.067
PNFFLTLISENWWHSEF [BRR2] | 2.8 ± 0.22 | 2.27 ± 0.11 | 2.59 ± 0.092 | 2.85 ± 0.25
PNFNVEIMQQKFPATNV [ECM29] | 2.25 ± 0.26 | 3 ± 0.2 | – | 2.86 ± 0.17
PNHNSPVVINLDAKNKV [RPO31] | 2.92 ± 0.16 | 3.08 ± 0.19 | – | 3.03 ± 0.24
PNIHQNLLPKKSAKTAK [HTA2] | 2.88 ± 0.19 | 3.09 ± 0.29 | – | 3 ± 0.14
PNINTWQQVTALAQQKL [GAL11] | 2.2 ± 0.058 | 2.23 ± 0.064 | 2.11 ± 0.085 | 2.08 ± 0.054
PNLNMKYRKRQLVTREA [FAS2] | 3.68 ± 0.15 | 3.13 ± 0.11 | 3 ± 0.095 | 3.05 ± 0.081
PNNASSHISASASPHLA [SNF2] | 2.53 ± 0.046 | 2.66 ± 0.044 | 2.51 ± 0.069 | 2.88 ± 0.039
